Laboratory results published in patent publication US20170165365A1 (SYMPHOGEN A S, published 2017).

T1: human HER4 antigen (human, UniProt Q15303 26-649, limits assumed)
T1 construct: Antigen coated for ELISA
T1 sequence (looked up): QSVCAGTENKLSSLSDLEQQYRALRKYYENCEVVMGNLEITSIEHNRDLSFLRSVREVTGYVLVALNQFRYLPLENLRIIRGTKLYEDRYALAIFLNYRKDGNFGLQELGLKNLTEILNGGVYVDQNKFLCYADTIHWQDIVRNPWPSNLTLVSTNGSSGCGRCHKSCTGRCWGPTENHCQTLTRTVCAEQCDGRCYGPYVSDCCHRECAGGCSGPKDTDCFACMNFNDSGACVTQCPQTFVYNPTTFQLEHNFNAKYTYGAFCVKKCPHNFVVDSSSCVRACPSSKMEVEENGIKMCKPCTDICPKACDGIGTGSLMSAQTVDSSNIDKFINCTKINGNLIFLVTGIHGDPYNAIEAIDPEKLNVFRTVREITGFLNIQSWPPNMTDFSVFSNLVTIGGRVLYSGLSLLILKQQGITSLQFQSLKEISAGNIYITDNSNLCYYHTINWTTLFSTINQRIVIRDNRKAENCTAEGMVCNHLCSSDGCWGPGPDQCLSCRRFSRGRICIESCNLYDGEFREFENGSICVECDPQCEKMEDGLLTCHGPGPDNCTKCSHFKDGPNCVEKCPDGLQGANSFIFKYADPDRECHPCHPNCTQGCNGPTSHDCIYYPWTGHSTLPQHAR

T2: murine HER4 antigen (mouse, UniProt Q61527 26-652, limits assumed)
T2 construct: In-house antigen coated for ELISA; also called mouse HER4
T2 sequence (looked up): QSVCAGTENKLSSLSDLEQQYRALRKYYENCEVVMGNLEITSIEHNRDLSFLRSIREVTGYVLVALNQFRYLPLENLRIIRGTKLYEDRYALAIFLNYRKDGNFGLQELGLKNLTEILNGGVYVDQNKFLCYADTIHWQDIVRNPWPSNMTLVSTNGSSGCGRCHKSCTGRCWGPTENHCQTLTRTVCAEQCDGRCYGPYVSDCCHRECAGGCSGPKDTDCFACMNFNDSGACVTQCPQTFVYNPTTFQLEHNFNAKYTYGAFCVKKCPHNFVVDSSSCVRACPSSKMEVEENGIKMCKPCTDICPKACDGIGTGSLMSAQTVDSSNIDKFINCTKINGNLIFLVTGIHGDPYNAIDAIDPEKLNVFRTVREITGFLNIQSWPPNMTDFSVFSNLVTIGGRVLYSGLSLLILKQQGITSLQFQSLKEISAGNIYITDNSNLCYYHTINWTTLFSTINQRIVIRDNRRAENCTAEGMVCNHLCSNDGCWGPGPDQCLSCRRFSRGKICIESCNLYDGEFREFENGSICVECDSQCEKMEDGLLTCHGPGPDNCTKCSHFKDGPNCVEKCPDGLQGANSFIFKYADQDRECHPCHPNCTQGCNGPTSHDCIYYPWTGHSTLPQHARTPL


Legend:
human HER4 antigen = molecular target: T1, human HER4 antigen; test: ELISA, coated hu HER4
Description: (§1) Antibody-antigen binding was measured by ELISA with coated antigens. Human antigens were obtained from Sino Biologicals. All other antigens were produced in-house by transient expression in CHO or HEK293 cells. Chimeric and humanized antibodies, as well as an isotype control antibody, were incubated with the coated antigens at different concentrations. After wash, bound antibodies were detected by HRP-(horse radish peroxidase)-conjugated secondary antibodies.

mouse EGFR antigen = molecular target: T3, mouse EGFR antigen (mouse, UniProt Q01279 25-647, limits assumed); test: ELISA, coated mu EGFR
T3 construct: In-house antigen coated for ELISA; also called mouse antigen; murine EGFR
Description: as §1

murine HER4 antigen = molecular target: T2, murine HER4 antigen; test: ELISA, coated mu HER4
Description: as §1

cynomolgus EGFR antigen = molecular target: T4, cynomolgus EGFR antigen (cynomolgus monkey, UniProt A0A2K5WK39 25-645); test: ELISA, coated cy EGFR
T4 construct: In-house antigen; also called cynomolgus antigen
Description: as §1

[1] = molecular target: T5, human HER2 antigen (Sino Biologicals) (human, UniProt P04626 23-652); test: ELISA, coated hu HER2
T5 construct: Bought soluble antigen; also called human antigen
Description: as §1

[2] = molecular target: T6, human EGFR antigen (Sino Biologicals) (human, UniProt P00533 25-645); test: ELISA, coated hu EGFR
T6 construct: Bought soluble antigen; also called human antigen
Description: as §1

mouse HER3 antigen = molecular target: T7, mouse HER3 antigen (mouse, UniProt Q61526 20-641, limits assumed); test: ELISA, coated mu HER3
T7 construct: In-house antigen coated for ELISA; also called mouse antigen; murine HER3
T7 sequence (Q61526 20-641 limits assumed): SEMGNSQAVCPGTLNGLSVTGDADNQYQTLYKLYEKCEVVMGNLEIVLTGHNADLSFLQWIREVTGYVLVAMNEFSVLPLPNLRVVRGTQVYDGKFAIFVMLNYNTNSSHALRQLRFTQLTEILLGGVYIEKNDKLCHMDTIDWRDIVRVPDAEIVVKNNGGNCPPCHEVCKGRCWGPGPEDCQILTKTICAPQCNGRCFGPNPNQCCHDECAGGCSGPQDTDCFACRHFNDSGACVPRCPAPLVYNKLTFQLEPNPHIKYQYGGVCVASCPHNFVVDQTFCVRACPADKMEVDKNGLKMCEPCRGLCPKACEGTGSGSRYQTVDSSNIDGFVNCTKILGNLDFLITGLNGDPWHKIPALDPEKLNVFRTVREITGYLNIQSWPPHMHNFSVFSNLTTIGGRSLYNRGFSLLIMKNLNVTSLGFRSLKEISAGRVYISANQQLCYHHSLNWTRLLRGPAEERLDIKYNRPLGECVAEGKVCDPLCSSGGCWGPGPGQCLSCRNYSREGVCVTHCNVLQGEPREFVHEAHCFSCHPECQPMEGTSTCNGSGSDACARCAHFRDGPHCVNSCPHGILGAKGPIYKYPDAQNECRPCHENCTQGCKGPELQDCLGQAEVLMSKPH
Description: as §1

cynomolgus HER3 antigen [3] = molecular target: T8, cynomolgus HER3 antigen (cynomolgus monkey, UniProt G7PIG5 20-643); test: SPR (ProteOn XPR36), IgG captured by anti-human Fc, soluble monovalent antigen, 1:1 fit
T8 construct: In-house antigen; also called cynomolgus antigen
T8 sequence (G7PIG5 entry or part of it): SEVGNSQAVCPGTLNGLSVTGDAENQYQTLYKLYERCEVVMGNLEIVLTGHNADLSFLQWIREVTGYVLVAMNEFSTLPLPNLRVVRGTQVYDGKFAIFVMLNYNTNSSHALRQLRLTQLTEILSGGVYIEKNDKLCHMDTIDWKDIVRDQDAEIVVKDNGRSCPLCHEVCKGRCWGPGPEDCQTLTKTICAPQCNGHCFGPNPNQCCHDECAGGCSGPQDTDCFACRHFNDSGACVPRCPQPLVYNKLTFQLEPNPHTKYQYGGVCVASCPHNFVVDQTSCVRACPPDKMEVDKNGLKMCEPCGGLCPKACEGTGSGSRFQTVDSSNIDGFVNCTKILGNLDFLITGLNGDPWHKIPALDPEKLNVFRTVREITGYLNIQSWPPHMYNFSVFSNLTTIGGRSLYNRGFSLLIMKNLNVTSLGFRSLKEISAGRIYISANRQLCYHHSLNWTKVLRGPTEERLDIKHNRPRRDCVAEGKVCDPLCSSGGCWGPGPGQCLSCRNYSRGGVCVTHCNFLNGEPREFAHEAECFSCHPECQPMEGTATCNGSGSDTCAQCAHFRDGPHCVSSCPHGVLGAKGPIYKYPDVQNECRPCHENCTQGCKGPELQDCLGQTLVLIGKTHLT
Description: (§2) Kinetic binding analysis of the purified humanized variants was performed on a ProteOn™ XPR36 biosensor (BioRad, USA) employing an IgG capture assay as described by Canziani et al. (Anal. Biochem. (2004) 325:301-307) that allows for measurement of antibody affinities of whole IgG molecules against soluble antigen under monovalent conditions. Briefly, approximately 5000 resonance units (RU) of a monoclonal mouse anti-human IgG Fc antibody (GE Healthcare, Denmark) was conjugated to a GLC chip surface (BioRad, USA) according to the manufacturer's instructions, followed by capture of individual antibodies of the invention or a negative control on the anti-Fc sensor surface. […] Next, 250 μl monovalent antigen (Sino Biologicals) was injected at a flow rate of 50 μl/min in serial threefold dilutions from 100 nM stock to generate response curves. The chip surface was regenerated between cycles by stripping the captured antibody/antigen complexes off the surface with a 10-second injection of 3 M MgCl₂ (GE Healthcare, Denmark) repeated three times. Finally, binding responses were fitted to a Langmuir 1:1 binding model for calculation of the on-rate (kon or ka), off-rate (koff or kd) and affinity (KD) constants using double referencing.

mouse HER2 antigen = molecular target: T9, mouse HER2 antigen (mouse, UniProt P70424 23-653, limits assumed); test: ELISA, coated mu HER2
T9 construct: In-house antigen coated for ELISA; also called mouse antigen; murine HER2
T9 sequence (P70424 23-653 limits assumed): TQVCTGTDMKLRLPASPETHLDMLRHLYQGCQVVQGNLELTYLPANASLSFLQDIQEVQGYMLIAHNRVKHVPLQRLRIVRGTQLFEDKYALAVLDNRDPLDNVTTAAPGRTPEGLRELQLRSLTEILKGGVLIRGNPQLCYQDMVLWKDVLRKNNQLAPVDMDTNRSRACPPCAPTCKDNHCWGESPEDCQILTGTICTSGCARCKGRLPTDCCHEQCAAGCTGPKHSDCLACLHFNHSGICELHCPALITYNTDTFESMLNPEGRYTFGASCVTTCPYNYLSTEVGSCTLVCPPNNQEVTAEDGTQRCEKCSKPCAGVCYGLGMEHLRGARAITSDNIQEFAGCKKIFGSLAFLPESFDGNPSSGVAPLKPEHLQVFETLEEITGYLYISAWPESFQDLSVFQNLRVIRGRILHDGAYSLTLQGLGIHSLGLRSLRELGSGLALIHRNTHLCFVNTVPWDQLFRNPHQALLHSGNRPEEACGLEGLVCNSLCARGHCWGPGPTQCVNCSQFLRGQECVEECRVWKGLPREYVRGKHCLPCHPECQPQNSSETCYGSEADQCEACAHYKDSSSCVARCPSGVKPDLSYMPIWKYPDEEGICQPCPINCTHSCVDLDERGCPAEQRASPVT
Description: as §1

[4] = molecular target: T10, human HER3 antigen (Sino Biologicals) (human, UniProt P21860 20-643); test: SPR (ProteOn XPR36), IgG captured by anti-human Fc, soluble monovalent antigen, 1:1 fit
T10 construct: Bought soluble antigen; also called human antigen
Description: as §2

[5] = molecular target: T10, human HER3 antigen (Sino Biologicals); test: ELISA, coated hu HER3
Description: as §1

cynomolgus HER3 antigen [6] = molecular target: T8, cynomolgus HER3 antigen; test: ELISA, coated cy HER3
Description: as §1

| Binder | binding result (human HER4 antigen) | binding result (mouse EGFR antigen) | binding result (murine HER4 antigen) | binding result (cynomolgus EGFR antigen) | binding result [1] | binding result [2] | binding result (mouse HER3 antigen) | Kd (cynomolgus HER3 antigen [3]) [pM] | binding result (mouse HER2 antigen) | Kd [4] [pM] | koff [4] [s⁻¹] | kon [4] [M⁻¹ s⁻¹] | koff (cynomolgus HER3 antigen [3]) [s⁻¹] | kon (cynomolgus HER3 antigen [3]) [M⁻¹ s⁻¹] | binding result [5] | binding result (cynomolgus HER3 antigen [6]) |
| --- | --- | --- | --- | --- | --- | --- | --- | --- | --- | --- | --- | --- | --- | --- | --- | --- |
| humanized anti-HER3 antibody 10738 (antibody, V domains shown) VH: QVQLQESGPGLVKPSQTLSLTCTVSGYSITSGFYWTWIRQHPGKGLEWMGFISYSGSNNYNPSLKNRITISVDTSKNQFSLKLSSVTAADTAVYYCARGGGYYGNLFDYWGQGTLVTVSS VL: DIQMTQSPSSLSASVGDRVTITCRPSQDISNYVNWFQQKPGKAVKLLIFHTSRLHSGVPSRFSGSGSGTDFTFTISSLQPEDIAIYYCQQGITLPWTFGQGTKVEIK | no binding (tested: 40 nM) | no binding (tested: 40 nM) | no binding (tested: 40 nM) | no binding (tested: 40 nM) | no binding (tested: 40 nM) | no binding (tested: 40 nM) | no binding (tested: 40 nM) | 540 | no binding (tested: 40 nM) |  |  |  |  |  |  |  |
| humanized anti-HER3 antibody 10810 (antibody, V domains shown) VH: QVQLQESGPGLVKPSQTLSLTCTVSGYSITSGFYWTWIRQHPGNGLEWIGFISYSGSNNYNPSLKNRVTISVDTSKNQFSLKLSSVTAADTATYYCARGGGYYGNLFDYWGQGTLVTVSS VL: DIQMTQSPSSLSASVGDRVTITCRPSQDISNYVNWFQQKPGKAPKLLIFHTSRLHSGVPSRFSGSGSGTDFTLTISSLQPEDIATYYCQQGITLPWTFGQGTKVEIK | no binding (tested: 40 nM) | no binding (tested: 40 nM) | no binding (tested: 40 nM) | no binding (tested: 40 nM) | no binding (tested: 40 nM) | no binding (tested: 40 nM) | no binding (tested: 40 nM) | 710 | no binding (tested: 40 nM) | 1100 | 0.0002 | 190000 | 0.00034 | 470000 |  |  |
| humanized anti-HER3 antibody 11006 (antibody, V domains shown) VH: QVQLQESGPGLVKPSQTLSLTCTVSGYSITSAYYWNWIRQHPGKGVEWMGYIGYSGRNTYNPSLKNRVTISRDTSKNQFSLKLSSVTAADTAVYYCSREGDYGYSDYWGQGTLVTVSS VL: DIQMTQSPSSLSASVGDRVTVTCRASQDTNNYLNWYQQKPGKAVKLLIYYTSRLQSGVPSRFSGSGSGTDFTLTISSLQPEDFATYFCQQSETLPWTFGQGTKVEIK | no binding (tested: 40 nM) | no binding (tested: 40 nM) | no binding (tested: 40 nM) | no binding (tested: 40 nM) | no binding (tested: 40 nM) | no binding (tested: 40 nM) | no binding (tested: 40 nM) | 59 | no binding (tested: 40 nM) |  | < 2e-06 | 740000 | 8.7e-05 | 1.5e+06 |  |  |

Other lines, results leading:

| binding result (human HER4 antigen) | binding result (mouse EGFR antigen) | binding result (murine HER4 antigen) | binding result (cynomolgus EGFR antigen) | binding result [1] | binding result [2] | binding result (mouse HER3 antigen) | Kd (cynomolgus HER3 antigen [3]) [pM] | binding result (mouse HER2 antigen) | Kd [4] [pM] | koff [4] [s⁻¹] | kon [4] [M⁻¹ s⁻¹] | koff (cynomolgus HER3 antigen [3]) [s⁻¹] | kon (cynomolgus HER3 antigen [3]) [M⁻¹ s⁻¹] | binding result [5] | binding result (cynomolgus HER3 antigen [6]) | Binder |
| --- | --- | --- | --- | --- | --- | --- | --- | --- | --- | --- | --- | --- | --- | --- | --- | --- |
| no binding (tested: 40 nM) | no binding (tested: 40 nM) | no binding (tested: 40 nM) | no binding (tested: 40 nM) | no binding (tested: 40 nM) | no binding (tested: 40 nM) | no binding (tested: 40 nM) | 890 | no binding (tested: 40 nM) | 1600 | 0.00048 | 300000 | 0.00041 | 460000 |  |  | chimeric anti-HER3 antibody 5038 (antibody, V domains shown, light chain entry is full length) VH: EVKLVESGPGLVKPSQSLSLTCSVTGYSITSGFYWTWIRQFPGNKLEWMGFISYDGSNNYNPSLKNRISITRDTSKNQFFLKLNSVTTEDTATYYCARGGGYYGNLFDYWGQGTTLTVS VL: DIVMTQTTSSLSASLGDRVTISCRPSQDISNYVNWFQQKPGGTVKLLIFHTSRLHSGVPSRFSGSGSGTDYSLTISTLEQEDIAIYFCQQGITLPWTFGGGTKLEIKR |
| no binding (tested: 40 nM) | no binding (tested: 40 nM) | no binding (tested: 40 nM) |  | no binding (tested: 40 nM) |  | no binding (tested: 40 nM) |  | no binding (tested: 40 nM) |  |  |  |  |  | no binding (tested: 40 nM) | no binding (tested: 40 nM) | humanized anti-EGFR antibody 10460 (antibody, V domains shown) VH: EVQLVESGGGLVQPGGSLRLSCAASGFAFSYSDMSWVRQAPGKRLEWVSYMSSAGDVTFYSDTVKGRFTISRDNAKNSLYLQVNSLRAEDTAVYYCVRHRDVAIDYWGQGTTVTVSS VL: DVVMTQSPLSLPVTLGQPASISCRSSQSLVHSNGNTYLHWYQQRPGQSPRLLIYKVSNRFSGVPDRFSGSGSGTDFTLKISRVEAEDVGVYFCSQSTHVPTFGGGTKLEIK |
| no binding (tested: 40 nM) | no binding (tested: 40 nM) | no binding (tested: 40 nM) | no binding (tested: 40 nM) | no binding (tested: 40 nM) | no binding (tested: 40 nM) | no binding (tested: 40 nM) | 98 | no binding (tested: 40 nM) | 80 | 7.3e-05 | 910000 | 0.00016 | 1.7e+06 |  |  | chimeric anti-HER3 antibody 5082 (antibody, V domains shown, light chain entry is full length) VH: EVQLKESGPGLVKPSQSLSLTCSVTGYSITSAYYWNWIRQFPGNKVEWMGYIGYDGRNTYNPSLKNRISITRDTSKNQFFLKLNSLTTEDTATYYCSREGDYGYSDYWGQGTTLTVS VL: DIVMTQATSSLSASLGDRVTVSCRASQDINNYLNWYQQKPDGTVKLLIYYTSRLQSGVPSRFSGSGSGIDYSLTISNLEQEDFVTYFCQQSETLPWTFGGGTKLELKR |
